Test results as given in patent US12269859B2, “Synthetic immune receptors and methods of use thereof” (Angeles Therapeutics, Inc., priority 2016, dated 2025).

B1: 062717-Q04 (protein)
chain: MALPVTALLLPLALLLHAARPLEGKPIPNPLLGLDSTGSGEDLKNVFPPEVAVFEPSKAEIAHTQKATLVCLATGFYPDHVELSWWVNGKEVHSGVCTDPQPLKEQPALNDSRYCLSSRLRVSATFWQNPRNHFRCQVQFYGLSENDEWTQDRAKPVTQIVSAEAWGRADCGITSASYHQGVLSATILYEILLGKATLYAVLVSALVLMAMVKRKDSRGRAKRSGSGATNFSLLKQAGDVEENPGPTSMALPVTALLLPLALLLHAARPQSALTQPASASGSPGQSVTISCTGTSSDVGGYNYVSWYQQHPGKAPKLMIYDVSNRPSGVSNRFSGSKSGNTASLTISGLQAEDEADYYCSSYTSSSTLYVFGTGTQLTVLGGGGSGGGGSGGGGSEVQLQQSGPGLVKPSQTLSLTCAISGDSMLSNSDTWNWIRQSPSRGLEWLGRTYHRSTWYDDYASSVRGRVSINVDTSKNQYSLQLNAVTPEDTGVYYCARVRLQDGNSWSDAFDVWGQGTMVTVSSTREQKLISEEDGSGIQNPDPAVYQLRDSKSSDKSVCLFTDFDSQTNVSQSKDSDVYITDKCVLDMRSMDFKSNSAVAWSNKSDFACANAFNNSIIPEDTFFPSSDVPCDVKLVEKSFETDTNLNFQNLSVIGFRILLLKVAGFNLLMTLRLWSSRAKRSGSGVKQTLNFDLLKLAGDVESNPGPSRGHMTEYKPTVRLATRDDVPRAVRTLAAAFADYPATRHTVDPDRHIERVTELQELFLTRVGLDIGKVWVADDGAAVAVWTTPESVEAGAVFAEIGPRMAELSGSRLAAQQQMEGLLAPHRPKEPAWFLATVGVSPDHQGKGLGSAVVLPGVEAAERAGVPAFLETSAPRNLPFYERLGFTVTADVEVPEGPRTWCMTRKPGA
B2: 090116-F02 (protein)
chain: MALPVTALLLPLALLLHAARPLEGKPIPNPLLGLDSTGSGEDLKNVFPPEVAVFEPSKAEIAHTQKATLVCLATGFYPDHVELSWWVNGKEVHSGVCTDPQPLKEQPALNDSRYCLSSRLRVSATFWQNPRNHFRCQVQFYGLSENDEWTQDRAKPVTQIVSAEAWGRADCGITSASYHQGVLSATILYEILLGKATLYAVLVSALVLMAMVKRKDSRGRAKRSGSGATNFSLLKQAGDVEENPGPTSMALPVTALLLPLALLLHAARPDDIVMTQSPDSLTVSLGERTTINCKSSQSVLDSSKNKNSLAWYQQKPGQPPKLLLSWASTRESGIPDRFSGSGSGTDFTLTIDSLQPEDSATYYCQQSAHFPITFGQGTRLEIKGGGGSGGGGSGGGGSQVQLVQSGAEVKKPGASVKVSCKASGYTFTNYGMNWVKQAPGQGLKWMGWINTYTGEPTYADDFKGRVTMTSDTSTSTAYLELHNLRSDDTAVYYCARWSWSDGYYVYFDYWGQGTTVTVSSTREQKLISEEDGSGIQNPDPAVYQLRDSKSSDKSVCLFTDFDSQTNVSQSKDSDVYITDKCVLDMRSMDFKSNSAVAWSNKSDFACANAFNNSIIPEDTFFPSSDVPCDVKLVEKSFETDTNLNFQNLSVIGFRILLLKVAGFNLLMTLRLWSSRAKRSGSGVKQTLNFDLLKLAGDVESNPGPSRGHMTEYKPTVRLATRDDVPRAVRTLAAAFADYPATRHTVDPDRHIERVTELQELFLTRVGLDIGKVWVADDGAAVAVWTTPESVEAGAVFAEIGPRMAELSGSRLAAQQQMEGLLAPHRPKEPAWFLATVGVSPDHQGKGLGSAVVLPGVEAAERAGVPAFLETSAPRNLPFYERLGFTVTADVEVPEGPRTWCMTRKPGA
modifications: Synthetic Immune Receptor (SIR)
B3: 041216-G06 (protein)
chain: MALPVTALLLPLALLLHAARPDEIVLTQSPGSLAVSPGERVTMSCKSSQSVFFSSSQKNYLAWYQQIPGQSPRLLIYWASTRESGVPDRFTGSGSGTDFTLTISSVQPEDLAIYYCHQYLSSRTFGQGTKLEIKRLEGKPIPNPLLGLDSTGSGEDLKNVFPPEVAVFEPSKAEIAHTQKATLVCLATGFYPDHVELSWWVNGKEVHSGVCTDPQPLKEQPALNDSRYCLSSRLRVSATFWQNPRNHFRCQVQFYGLSENDEWTQDRAKPVTQIVSAEAWGRADCGITSASYHQGVLSATILYEILLGKATLYAVLVSALVLMAMVKRKDSRGRAKRSGSGATNFSLLKQAGDVEENPGPTSMDWIWRILFLVGAATGAHSFEQVQLQQPGAEVVKPGASVKMSCKASGYTFTSYYIHWIKQTPGQGLEWVGVIYPGNDDISYNQKFQGKATLTADKSSTTAYMQLSSLTSEDSAVYYCAREVRLRYFDVWGQGTTVTVSSTREQKLISEEDGSGTPFPSLAPPIMLLVDGKQQMVVVCLVLDVAPPGLDSPIWFSAGNGSALDAFTYGPSPATDGTWTNLAHLSLPSEELASWEPLVCHTGPGAEGHSRSTQPMHLSGEASTARTCPQEPLRGTPGGALWLGVLRLLLFKLLLFDLLLTCSCLCDPAGPLPSPATTTRLRALGSHRLHPATETGGREATSSPRPQPRDRRWGDTPPGRKPGSPVRAKRSGSGVKQTLNFDLLKLAGDVESNPGPSRGHMTEYKPTVRLATRDDVPRAVRTLAAAFADYPATRHTVDPDRHIERVTELQELFLTRVGLDIGKVWVADDGAAVAVWTTPESVEAGAVFAEIGPRMAELSGSRLAAQQQMEGLLAPHRPKEPAWFLATVGVSPDHQGKGLGSAVVLPGVEAAERAGVPAFLETSAPRNLPFYERLGFTVTADVEVPEGPRTWCMTRKPGA
modifications: Polynucleotide encoding a Synthetic Immune Receptor (SIR)
B4: 083116-D03 (protein)
chain: MALPVTALLLPLALLLHAARPLEGKPIPNPLLGLDSTGSGEDLKNVFPPEVAVFEPSKAEIAHTQKATLVCLATGFYPDHVELSWWVNGKEVHSGVCTDPQPLKEQPALNDSRYCLSSRLRVSATFWQNPRNHFRCQVQFYGLSENDEWTQDRAKPVTQIVSAEAWGRADCGITSASYHQGVLSATILYEILLGKATLYAVLVSALVLMAMVKRKDSRGRAKRSGSGATNFSLLKQAGDVEENPGPTSMALPVTALLLPLALLLHAARPDIQMTQSPATIENTSLSASVGDRVTITCRASQGISSWLTWYQQKPEKAPKSLIYAASSLQSGVPSRFSGSGSGTDFTLTISSLQPEDFATYYCQQYDSYPITFGQGTRLEIKGGGGSGGGGSGGGGSQVQLQQWGAGLLKPSETLSLTCAVYGGSFSAYYWSWIRQPPGKGLEWIGDINHGGGTNYNPSLKSRVTISVDTSKNQFSLKLNSVTAADTAVYYCASLTAYWGQGSLVTVSSTREQKLISEEDLGSGTPFPSLAPPIMLLVDGKQQMVVVCLVLDVAPPGLDSPIWFSAGNGSALDAFTYGPSPATDGTWTNLAHLSLPSEELASWEPLVCHTGPGAEGHSRSTQPMHLSGEASTARTCPQEPLRGTPGGALWLGVLRLLLFKLLLFDLLLTCSCLCDPAGPLPSPATTTRLRALGSHRLHPATETGGREATSSPRPQPRDRRWGDTPPGRKPGSPVRAKRSGSGVKQTLNFDLLKLAGDVESNPGPSRSRGHMTEYKPTVRLATRDDVPRAVRTLAAAFADYPATRHTVDPDRHIERVTELQELFLTRVGLDIGKVWVADDGAAVAVWTTPESVEAGAVFAEIGPRMAELSGSRLAAQQQMEGLLAPHRPKEPAWFLATVGVSPDHQGKGLGSAVVLPGVEAAERAGVPAFLETSAPRNLPFYERLGFTVTADVEVPEGPRTWCMTRKPGA
modifications: Polynucleotide encoding a Synthetic Immune Receptor (SIR)
B5: 032216-W04 (protein)
chain: MALPVTALLLPLALLLHAARPDEIVLTQSPGSLAVSPGERVTMSCKSSQSVFFSSSQKNYLAWYQQIPGQSPRLLIYWASTRESGVPDRFTGSGSGTDFTLTISSVQPEDLAIYYCHQYLSSRTFGQGTKLEIKRLEGKPIPNPLLGLDSTGSGEDLKNVFPPEVAVFEPSKAEIAHTQKATLVCLATGFYPDHVELSWWVNGKEVHSGVCTDPQPLKEQPALNDSRYCLSSRLRVSATFWQNPRNHFRCQVQFYGLSENDEWTQDRAKPVTQIVSAEAWGRADCGITSASYHQGVLSATILYEILLGKATLYAVLVSALVLMAMVKRKDSRGRAKRSGSGATNFSLLKQAGDVEENPGPTSMDWIWRILFLVGAATGAHSFEQVQLQQPGAEVVKPGASVKMSCKASGYTFTSYYIHWIKQTPGQGLEWVGVIYPGNDDISYNQKFQGKATLTADKSSTTAYMQLSSLTSEDSAVYYCAREVRLRYFDVWGQGTTVTVSSTREQKLISEEDGSGIQNPDPAVYQLRDSKSSDKSVCLFTDFDSQTNVSQSKDSDVYITDKCVLDMRSMDFKSNSAVAWSNKSDFACANAFNNSIIPEDTFFPSSDVPCDVKLVEKSFETDTNLNFQNLSVIGFRILLLKVAGFNLLMTLRLWSSRAKRSGSGVKQTLNFDLLKLAGDVESNPGPSRGHMTEYKPTVRLATRDDVPRAVRTLAAAFADYPATRHTVDPDRHIERVTELQELFLTRVGLDIGKVWVADDGAAVAVWTTPESVEAGAVFAEIGPRMAELSGSRLAAQQQMEGLLAPHRPKEPAWFLATVGVSPDHQGKGLGSAVVLPGVEAAERAGVPAFLETSAPRNLPFYERLGFTVTADVEVPEGPRTWCMTRKPGA
modifications: Polynucleotide encoding a Synthetic Immune Receptor (SIR)

System: target antigen-expressing cell line
Test: Jurkat NFAT-GFP assay, coculture with target cell lines expressing the respective target antigen (summary Table 10A)
Type: cell-based, human
Parameters: key: The signs +/−, +, 2+ etc. after the name of the cell lines indicate the relative degree of positivity on the Jurkat-NFAT-GFP assay as measured by the % GFP positive cells; +: relative degree of positivity on the Jurkat-NFAT-GFP assay as measured by the % GFP positive cells; 2+: relative degree of positivity on the Jurkat-NFAT-GFP assay as measured by the % GFP positive cells
Conditions: relative % GFP positive cells; for NFAT-GFP ASSAY Positive Cell lines: RAJI: SIR-expressing Jurkat-NFAT-GFP cells cocultured with RAJI; for NFAT-GFP ASSAY Positive Cell lines: HL60: SIR-expressing Jurkat-NFAT-GFP cells cocultured with HL60
Procedure, shortened: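 Stable SIR expression in Jurkat-NFAT-GFP cells by lentiviral transfer and puromycin selection; coculture with target cells (E:T approximately 1:2) for 4 to 18 hours; flow cytometric measurement of NFAT-driven GFP; scoring as positive when % GFP-positive cells exceeds that of parental reporter cells.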

Molecule | NFAT-GFP ASSAY Positive Cell lines: RAJI | NFAT-GFP ASSAY Positive Cell lines: HL60 | further results
B1 | RAJI (+) | – | –
B2 | – | HL60 (+/−) | –
B3 | RAJI (+/−), HL60 | + | NFAT-GFP ASSAY Positive Cell lines: KG1 (SIR-expressing Jurkat-NFAT-GFP cells cocultured with KG1): KG1 (+/−); NFAT-GFP ASSAY Positive Cell lines: THP1 (SIR-expressing Jurkat-NFAT-GFP cells cocultured with THP1): +/−
B4 | – | – | NFAT-GFP ASSAY Positive Cell lines: L428 (SIR-expressing Jurkat-NFAT-GFP cells cocultured with L428): L428 (+/−)
B5 | – | HL60 (+), MOLM13 | –
